This note sets out measurements from patent US20140328762A1, “Fluorogenic Peptide Probes and Assays” (priority 2011, published 2014).

Experiment [1] concerns the target T1, E3 peptide.
T1 chain: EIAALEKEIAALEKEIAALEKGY
As to the kind of experiment: fluorescence titration of 1 µM beacon with E3 peptide.

Experiment [2] addresses T1, E3 peptide. As to the kind of experiment: fluorescence titration of 1 µM beacon with E3 peptide, curve fitting.
Experiment [3] concerns the target T1, E3 peptide. The experiment is described as follows: fluorescence titration of 10 nM beacon with E3 peptide, curve fitting.
In experiment [4] the target is unlabeled JunLZ-Lb1b4 [MBP: P0AEX9]. As to the kind of experiment: fluorescence at 580 nm, 100 nM beacon, 10 µM partner (FIG. 14A, column B).
Experiment [5] has as its target FosLZ (MBP-FosLZ, fusion protein of MBP and the cFos leucine zipper) [MBP: P0AEX9]. As to the kind of experiment: fluorescence at 580 nm, 100 nM beacon, 10 µM partner (FIG. 14A, column C).
The target in experiment [6] is unlabeled GCN4 244 (yeast). As to the kind of experiment: fluorescence at 580 nm, 100 nM beacon, 10 µM partner (FIG. 14A, column D).
Experiment [7] addresses T1, E3 peptide. The experiment is described as follows: fluorescence at 580 nm, 100 nM beacon, 10 µM partner (FIG. 14A, column E).
In experiment [8] the target is T1, E3 peptide. The experiment is described as follows: Kd of the beacon (fluorescence) compared with Kd of unlabeled K3-b1b3 (CD), both for E3.
For experiment [9], the target named is T2, full length human XRCC4 protein (recombinant, E. coli) (human), Q13426. As to the kind of experiment: absorbance spectra, 1 µM beacon, 40 µM protein; beacon only 0.40 (FIG. 7).
The target of experiment [10] is truncated XRCC4 protein that does not have DNA ligase IV binding site (recombinant, E. coli) (human), Q13426. The experiment is described as above.
The target of experiment [11] is T2, full length human XRCC4 protein …. As to the kind of experiment: fluorescence of 2 µM beacon with increasing concentration of XRCC4 (FIG. 8).
Experiment [12] has as its target T1, E3 peptide. As to the kind of experiment: CD spectra analysis, curve fitting (data not shown).

T2 sequence (Q13426 whole entry, the tested form may be a part): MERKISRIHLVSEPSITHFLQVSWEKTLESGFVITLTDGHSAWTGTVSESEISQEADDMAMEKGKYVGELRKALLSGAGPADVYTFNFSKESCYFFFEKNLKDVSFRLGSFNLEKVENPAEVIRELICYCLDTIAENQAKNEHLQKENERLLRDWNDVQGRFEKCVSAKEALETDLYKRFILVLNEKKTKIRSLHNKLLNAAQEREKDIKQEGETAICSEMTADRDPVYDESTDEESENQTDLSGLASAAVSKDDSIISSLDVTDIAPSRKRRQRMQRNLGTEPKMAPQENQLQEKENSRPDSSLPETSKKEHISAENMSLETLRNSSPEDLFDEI
Sequence of truncated XRCC4 protein that does not have DNA ligase IV binding site (recombinant, E. coli) (human), Q13426 (Q13426 2-150 limits assumed): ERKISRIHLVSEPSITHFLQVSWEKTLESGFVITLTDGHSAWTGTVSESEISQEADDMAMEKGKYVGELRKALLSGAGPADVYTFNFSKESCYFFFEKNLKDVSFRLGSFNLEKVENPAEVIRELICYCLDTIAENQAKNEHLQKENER

For KICALKAKIAALKAKICALKAGY (modifications not checked) [K3-b1b3 beacon], the maximum fluorescence enhancement with E3 peptide [1] was determined as 12 fold. In addition, the Kd with E3 peptide [2] came out at 766 nM; with E3 peptide [3] it was 738 nM. The fluorescence enhancement over beacon only in [4] turned out to be 1.5 fold; in experiment [5], 1.6 fold; in experiment [6], 1.2 fold; with E3 peptide [7] it was 7 fold. In the experiment with E3 peptide [8], the fold decrease of binding affinity against unlabeled K3-b1b3 stood at 17 fold.

For the molecule CREYDSYGDSYFIDTDLNQLKEVFSGIKCG (modifications not checked) [LigIV-C1 peptide beacon], the figures for the A550/A520 ratio in experiment [9] and in [10] were 0.46 and 0.38, respectively. Moreover, the fluorescence enhancement in [11] was found to be 9.5 fold.

In turn, KICALKAKIAALKAKICALKAGY (modifications not checked) [K3-b1b3 peptide (unlabeled)] gave a dissociation constant Kd with E3 peptide [12] of 45 nM.
